Consider one substance from paper PMC5912448.

The assay addresses human β-Klotho extracellular domain (aa 1–992) His6 (human) (UniProt Q86Z14). Put plainly: BLI; Octet RED; biotinylated β-Klotho ECD His6 (10 μg/ml) loaded onto streptavidin biosensors; analyte at various concentrations in kinetics buffer, 5 min association, 10 min dissociation; globally fitted 1:1 binding model. Background: In BLI a coated tip is dipped into the sample, and binding shifts an interference pattern.
Chain of UniProt Q86Z14 (Q86Z14 1-992): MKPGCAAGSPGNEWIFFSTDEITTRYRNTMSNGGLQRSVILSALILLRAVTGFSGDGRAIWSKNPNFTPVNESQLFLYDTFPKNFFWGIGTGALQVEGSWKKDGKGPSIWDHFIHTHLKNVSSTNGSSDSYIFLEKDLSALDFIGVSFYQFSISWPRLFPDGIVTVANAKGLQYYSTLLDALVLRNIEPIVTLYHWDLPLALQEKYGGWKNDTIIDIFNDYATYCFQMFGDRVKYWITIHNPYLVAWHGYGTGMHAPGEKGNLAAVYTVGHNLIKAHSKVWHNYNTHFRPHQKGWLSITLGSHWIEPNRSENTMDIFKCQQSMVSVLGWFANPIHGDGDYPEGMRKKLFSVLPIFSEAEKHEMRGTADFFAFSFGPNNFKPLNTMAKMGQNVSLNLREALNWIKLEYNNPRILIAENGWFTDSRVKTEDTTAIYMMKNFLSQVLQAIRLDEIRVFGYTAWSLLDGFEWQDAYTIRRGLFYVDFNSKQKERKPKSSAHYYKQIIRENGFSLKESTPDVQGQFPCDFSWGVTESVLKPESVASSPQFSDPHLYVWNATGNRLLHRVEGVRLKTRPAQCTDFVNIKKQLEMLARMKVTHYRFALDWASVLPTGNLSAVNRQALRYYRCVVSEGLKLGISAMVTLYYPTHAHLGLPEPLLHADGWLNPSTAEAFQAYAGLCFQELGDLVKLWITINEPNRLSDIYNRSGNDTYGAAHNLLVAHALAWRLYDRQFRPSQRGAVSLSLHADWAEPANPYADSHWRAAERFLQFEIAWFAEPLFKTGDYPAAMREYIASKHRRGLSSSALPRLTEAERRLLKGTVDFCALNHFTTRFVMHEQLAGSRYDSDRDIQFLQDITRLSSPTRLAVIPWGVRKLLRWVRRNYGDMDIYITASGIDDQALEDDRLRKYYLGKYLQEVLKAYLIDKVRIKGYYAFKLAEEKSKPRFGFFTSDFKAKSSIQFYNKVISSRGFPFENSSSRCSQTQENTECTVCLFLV

Broadly, the Kd is the equilibrium constant for the complex coming apart. The substance fibroblast growth factor 21 (ligand) gave an equilibrium dissociation constant (Kd) of 3.55 nM.
